The supplement of paper PMC11246515
± gives the standard deviation of the averaged measurements.

Assay: total protein half-life in vivo (active degradation + dilution); higher = more stable protein
[1] = E. coli NCM3722 delta-clpP delta-lon delta-hslV, growth: N-lim chemostat, doubling time 6 h
[2] = E. coli NCM3722 delta-clpP, growth: N-lim chemostat, doubling time 6 h
[3] = E. coli NCM3722 delta-hslV, growth: N-lim chemostat, doubling time 6 h
[4] = E. coli NCM3722 delta-smpB, growth: N-lim chemostat, doubling time 6 h
[5] = wild type E. coli NCM3722, growth: C-lim chemostat, doubling time 3 h
[6] = wild type E. coli NCM3722, growth: C-lim chemostat, doubling time 6 h
[7] = wild type E. coli NCM3722, growth: N-lim chemostat, doubling time 6 h
[8] = wild type E. coli NCM3722, growth: N-lim chemostat, doubling time 12 h
[9] = wild type E. coli NCM3722, growth: P-lim chemostat, doubling time 6 h
[10] = wild type E. coli NCM3722, growth: P-lim chemostat, doubling time 12 h
[11] = E. coli NCM3722 delta-lon, growth: N-lim chemostat, doubling time 6 h
[12] = wild type E. coli NCM3722, growth: C-lim chemostat, doubling time 12 h

## MMDNMQTEAQPTRTRILNAAREIFSENGFHSASMKAICKSCAISPGTLYHHFISKEALIQAIILQDQERALARFREPIEGIHFVDYMVESIVSLTHEAFGQRALVVEIMAEGMRNPQVAAMLKNKHMTITEFVAQRMRDAQQKGEISPDINTAMTSRLLLDLTYGVLADIEAEDLAREASFAQGLRAMIGGILTAS [P0ACT6]
[1]
  total protein half-life in vivo: 6.37 ± 1.1 h
[2]
  total protein half-life in vivo: 5.2 ± 0.53 h
[3]
  total protein half-life in vivo: 4.39 ± 0.71 h
[4]
  total protein half-life in vivo: 5.56 ± 0.51 h
[5]
  total protein half-life in vivo: 3.36 ± 0.77 h
[6]
  total protein half-life in vivo: 6.053 ± 0.026 h
[7]
  total protein half-life in vivo: 4.87 ± 0.49 h
[8]
  total protein half-life in vivo: 9.35 ± 0.28 h
[9]
  total protein half-life in vivo: 4.64 ± 0.12 h
[10]
  total protein half-life in vivo: 10.3 ± 0.2 h

## MDKFDANRRKLLALGGVALGAAILPTPAFATLSTPRPRILTLNNLHTGESIKAEFFDGRGYIQEELAKLNHFFRDYRANKIKSIDPGLFDQLYRLQGLLGTRKPVQLISGYRSIDTNNELRARSRGVAKKSYHTKGQAMDFHIEGIALSNIRKAALSMRAGGVGYYPRSNFVHIDTGPARHW [P0AB06]
[1]
  total protein half-life in vivo: 3.83 ± 1.1 h
[3]
  total protein half-life in vivo: 2.76 ± 2.8 h
[11]
  total protein half-life in vivo: 1 ± 0.91 h
[4]
  total protein half-life in vivo: 1.8 ± 0.088 h
[5]
  total protein half-life in vivo: 0.68 ± 0.53 h
[6]
  total protein half-life in vivo: 2.67 ± 0.29 h
[12]
  total protein half-life in vivo: 6.36 ± 2 h
[7]
  total protein half-life in vivo: 1.97 ± 0.11 h
[8]
  total protein half-life in vivo: 1.81 ± 1.2 h
[9]
  total protein half-life in vivo: 1.82 ± 0.81 h
[10]
  total protein half-life in vivo: 2.46 ± 0.46 h

## MTEPLKPRIDFDGPLEVDQNPKFRAQQTFDENQAQNFAPATLDEAQEEEGQVEAVMDAALRPKRSLWRKMVMGGLALFGASVVGQGVQWTMNAWQTQDWVALGGCAAGALIIGAGVGSVVTEWRRLWRLRQRAHERDEARDLLHSHGTGKGRAFCEKLAQQAGIDQSHPALQRWYASIHETQNDREVVSLYAHLVQPVLDAQARREISRSAAESTLMIAVSPLALVDMAFIAWRNLRLINRIATLYGIELGYYSRLRLFKLVLLNIAFAGASELVREVGMDWMSQDLAARLSTRAAQGIGAGLLTARLGIKAMELCRPLPWIDDDKPRLGDFRRQLIGQVKETLQKGKTPSEK [P0A8R7]
[1]
  total protein half-life in vivo: 5.42 ± 0.51 h
[2]
  total protein half-life in vivo: 5.1 ± 0.24 h
[3]
  total protein half-life in vivo: 4.51 ± 0.62 h
[11]
  total protein half-life in vivo: 4.85 ± 0.12 h
[4]
  total protein half-life in vivo: 4.83 ± 0.29 h
[5]
  total protein half-life in vivo: 2.96 ± 0.27 h
[6]
  total protein half-life in vivo: 4.75 ± 0.28 h
[12]
  total protein half-life in vivo: 11.2 ± 0.13 h
[7]
  total protein half-life in vivo: 5.23 ± 0.17 h
[8]
  total protein half-life in vivo: 8.5 ± 0.23 h
[9]
  total protein half-life in vivo: 5.02 ± 0.48 h
[10]
  total protein half-life in vivo: 8.52 ± 0.38 h

## MRIGMRLLLGYFLLVAVAAWFVLAIFVKEVKPGVRRATEGTLIDTATLLAELARPDLLSGDPTHGQLAQAFNQLQHRPFRANIGGINKVRNEYHVYMTDAQGKVLFDSANKAVGQDYSRWNDVWLTLRGQYGARSTLQNPADPESSVMYVAAPIMDGSRLIGVLSVGKPNAAMAPVIKRSERRILWASAILLGIALVIGAGMVWWINRSIARLTRYADSVTDNKPVPLPDLGSSELRKLAQALESMRVKLEGKNYIEQYVYALTHELKSPLAAIRGAAEILREGPPPEVVARFTDNILTQNARMQALVETLLRQARLENRQEVVLTAVDVAALFRRVSEARTVQLAEKKITLHVTPTEVNVAAEPALLEQALGNLLDNAIDFTPESGCITLSAEVDQEHVTLKVLDTGSGIPDYALSRIFERFYSLPRANGQKSSGLGLAFVSEVARLFNGEVTLRNVQEGGVLASLRLHRHFT
[1]
  total protein half-life in vivo: 6.22 ± 0.68 h
[2]
  total protein half-life in vivo: 7.24 ± 0.64 h
[3]
  total protein half-life in vivo: 6.18 ± 0.49 h
[11]
  total protein half-life in vivo: 5.7 ± 0.74 h
[4]
  total protein half-life in vivo: 5.49 ± 0.91 h
[5]
  total protein half-life in vivo: 3.16 ± 0.14 h
[6]
  total protein half-life in vivo: 6.54 ± 1.2 h
[12]
  total protein half-life in vivo: 9.95 ± 2.1 h
[7]
  total protein half-life in vivo: 5.81 ± 0.57 h
[8]
  total protein half-life in vivo: 12.1 ± 0.34 h
[9]
  total protein half-life in vivo: 6.86 ± 0.85 h
[10]
  total protein half-life in vivo: 12.8 ± 1.8 h

## MATIKDVAKRANVSTTTVSHVINKTRFVAEETRNAVWAAIKELHYSPSAVARSLKVNHTKSIGLLATSSEAAYFAEIIEAVEKNCFQKGYTLILGNAWNNLEKQRAYLSMMAQKRVDGLLVMCSEYPEPLLAMLEEYRHIPMVVMDWGEAKADFTDAVIDNAFEGGYMAGRYLIERGHREIGVIPGPLERNTGAGRLAGFMKAMEEAMIKVPESWIVQGDFEPESGYRAMQQILSQPHRPTAVFCGGDIMAMGALCAADEMGLRVPQDVSLIGYDNVRNARYFTPALTTIHQPKDSLGETAFNMLLDRIVNKREEPQSIEVHPRLIERRSVADGPFRDYRR [P0ACP7]
[1]
  total protein half-life in vivo: 5.38 ± 0.92 h
[2]
  total protein half-life in vivo: 5.291 ± 0.032 h
[3]
  total protein half-life in vivo: 4.538 ± 0.044 h
[11]
  total protein half-life in vivo: 5.39 ± 0.36 h
[4]
  total protein half-life in vivo: 4.55 ± 0.3 h
[5]
  total protein half-life in vivo: 3.02 ± 0.049 h
[6]
  total protein half-life in vivo: 5.87 ± 0.35 h
[12]
  total protein half-life in vivo: 10.4 ± 1.1 h
[7]
  total protein half-life in vivo: 5.02 ± 0.61 h
[8]
  total protein half-life in vivo: 7.74 ± 1.6 h
[9]
  total protein half-life in vivo: 5.29 ± 0.41 h
[10]
  total protein half-life in vivo: 10.9 ± 1.4 h

## MTNLNYQQTHFVMSAPDIRHLPSDTGIEVAFAGRSNAGKSSALNTLTNQKSLARTSKTPGRTQLINLFEVADGKRLVDLPGYGYAEVPEEMKRKWQRALGEYLEKRQSLQGLVVLMDIRHPLKDLDQQMIEWAVDSNIAVLVLLTKADKLASGARKAQLNMVREAVLAFNGDVQVETFSSLKKQGVDKLRQKLDTWFSEMQPVEETQDGE [P0A6P7]
[1]
  total protein half-life in vivo: 5.33 ± 0.22 h
[2]
  total protein half-life in vivo: 6.45 ± 1.6 h
[3]
  total protein half-life in vivo: 5.05 ± 0.074 h
[11]
  total protein half-life in vivo: 5.83 ± 0.38 h
[4]
  total protein half-life in vivo: 5.19 ± 0.42 h
[5]
  total protein half-life in vivo: 2.924 ± 0.022 h
[6]
  total protein half-life in vivo: 5.58 ± 0.19 h
[12]
  total protein half-life in vivo: 11.2 ± 0.46 h
[7]
  total protein half-life in vivo: 5.08 ± 0.32 h
[8]
  total protein half-life in vivo: 9.45 ± 0.2 h
[9]
  total protein half-life in vivo: 5.59 ± 0.11 h
[10]
  total protein half-life in vivo: 11.4 ± 0.91 h
